Assays:
malate dehydrogenase = malate dehydrogenase (UniProt P00346)
citrate synthase [1] = molecular target: citrate synthase (UniProt P00889)
[2] = molecular target: luciferase [luciferase: P08659]
citrate synthase [3] = molecular target: citrate synthase (UniProt P00889); remark: listed apart in the source
[4] = molecular target: Synechococcus sp. phage S-ShM2 18 kDa small heat shock protein (HspSP-ShM2) (cyanophage S-ShM2 (Synechococcus sp. phage)); assay: SEC; Superdex 200 Increase 10/300 GL, TEN buffer (50 mM Tris-HCl pH 8.0, 0.1 mM EDTA, 150 mM NaCl) without detergent, room temperature, 0.5 ml/min; HspSP-ShM2 alone at 30 and 60 uM (the ~200 kDa species only at 60 uM); masses from a standard curve

Sequence of UniProt P00889 (P00889 28-464): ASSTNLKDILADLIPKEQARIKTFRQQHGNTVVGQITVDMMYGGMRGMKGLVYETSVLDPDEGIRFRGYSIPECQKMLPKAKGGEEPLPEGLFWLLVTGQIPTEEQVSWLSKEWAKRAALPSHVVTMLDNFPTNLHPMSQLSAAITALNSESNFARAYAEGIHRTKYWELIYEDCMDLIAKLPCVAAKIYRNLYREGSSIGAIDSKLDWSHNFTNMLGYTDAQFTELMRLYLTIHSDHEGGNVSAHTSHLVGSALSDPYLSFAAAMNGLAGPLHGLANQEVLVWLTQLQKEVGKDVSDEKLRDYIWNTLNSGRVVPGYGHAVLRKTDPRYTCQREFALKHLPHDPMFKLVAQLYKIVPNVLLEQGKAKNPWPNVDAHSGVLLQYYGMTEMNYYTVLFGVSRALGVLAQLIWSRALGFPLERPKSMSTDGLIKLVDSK
Sequence of UniProt P00346 (P00346 25-338): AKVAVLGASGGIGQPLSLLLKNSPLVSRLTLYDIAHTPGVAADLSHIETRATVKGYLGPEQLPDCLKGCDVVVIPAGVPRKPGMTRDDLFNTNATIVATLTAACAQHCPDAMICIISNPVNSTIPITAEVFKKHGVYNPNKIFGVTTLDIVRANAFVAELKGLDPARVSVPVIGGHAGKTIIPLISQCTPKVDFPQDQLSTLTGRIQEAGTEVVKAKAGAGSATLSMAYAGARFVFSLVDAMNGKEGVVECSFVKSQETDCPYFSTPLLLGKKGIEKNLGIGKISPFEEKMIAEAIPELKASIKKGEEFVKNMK

Synechococcus sp. phage S-ShM2 18 kDa small heat shock protein (HspSP-ShM2) (natural protein)
percent of heat-induced aggregation of MDH (light scattering at 320 nm, 90 min at 45°C, MDH alone = 100%) at 6:1 and 12:1 HspSP-ShM2:MDH (26.9 and 6.5%) (malate dehydrogenase): 26.9%
percent of heat-induced aggregation of CS (light scattering at 320 nm, 90 min at 45°C, CS alone = 100%) at 5:1 and 10:1 HspSP-ShM2:CS (41.6 and 8.17%) (citrate synthase [1]): 41.6%
percent of heat-induced aggregation of Luc (light scattering at 320 nm, 30 min at 42°C, Luc alone = 100%) at 6:1 and 12:1 HspSP-ShM2:Luc (45.8 and 6.4%) [2]: 45.8%
decrease of the ability to prevent heat-induced aggregation of CS in the presence of 0.23 mM Triton X-100, at 5:1 and 10:1 HspSP-ShM2:CS (20% and 12%) (citrate synthase [3]): 20%
stoichiometry N [4]: 12
